Source: the supplement of paper PMC11865577

What was measured:
Test in all cases: pull-down binding Z-score (relative to library population); higher = stronger binding
Settings in all cases: RNA library: Library-2
[1] = test system: TO-N3-2 (biotin conjugate)
How it was run: (§1)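 Streptavidin beads bearing 100 pmol of a biotin-conjugated small molecule were incubated for 60 min at 25 °C with 1 μg of heat-folded, Cy5- or Cy3-end-labelled RNA library in phosphate/NaCl/KCl buffer. Hot SDS eluted the RNA that stayed bound after three washes, and this RNA was hybridised for 20 h at 55.5 °C to a DNA barcode microarray. Binding was expressed as a Z-score against the library mean and standard deviation, after subtraction of a beads-only signal and trimmed averaging of barcoded replicate probes.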

[2] = test system: TO-3-N3 (biotin conjugate)
How it was run: as §1

TO-N3 (biotin conjugate) = test system: TO-N3 (biotin conjugate)
How it was run: as §1

[3] = test system: TO-3-N3-2 (biotin conjugate)
How it was run: as §1

Sequence	pull-down binding Z-score [1]	pull-down binding Z-score [2]	pull-down binding Z-score (TO-N3 (biotin conjugate))	pull-down binding Z-score [3]
GUUGUAGACGGUUGUAAUUCAUCAACUUGUAUGAUGUGUUACAAACGUAAUAGAGC [SHAPE_invivo_SARS-CoV-2_Motif_153]	-0.564	-0.547	-0.562	-0.153
GUUGUAGACGGUUGUAAUUCAUCAACUUGUAUGAUGUGUUACAAACGUAAUAGAGCAAC	-0.288	-0.88	-0.954	-0.529
GUUGUCGCUUCCAAGAAAAGGACGAAGAUGACAAU [SHAPE_invitro_SARS-CoV-2_Motif_248]	0.292	0.276	0.141	0.224
GUUGUCUUGAAAACUGGUGAUUUACAACCAUUAGAACAACCUACUAGUGAAGCUGUUGAAGCUCCAUUGGUUGGUACACCAGUUUGUAUUAAC	-0.384	-0.52	-0.376	-0.367
GUUGUCUUUGAUGAAAUUUCAAUGGCCAC [DMSMaPseq_invitro_SARS-CoV-2_Motif_310]	0.376	-0.693	-0.615	-0.29
GUUGUUACUCACAAUUUUGACUUCACUUUUAGUUUUAGUCCAGAGUACUCAAU	-0.924	-0.826	-0.965	-0.324
GUUUAAGGAAGGUGUAGAGUUUCUUAGAGAC	0.726	-0.375	0.119	0.179
GUUUACAACAGUAGAC	-1.28	0.0879	-0.136	-0.155
GUUUAUGAAAAACUCAAACCCGUCCUUGAUUGGCUUGAAGAGAAGUUUAAGGAAGGUGUAGAGUUUCUUAGAGAC	-0.0848	0.121	0.416	-0.241
GUUUCGGAAGAGAC	-0.706	-0.255	-0.448	-0.443
GUUUCUGCCUUUCCAACAAUUUGGCAGAGAC	-0.994	-0.615	-0.868	-0.306
GUUUGUCUUAGUGGUUUAGAUUCUUUAGACACCUAUCCUUCUUUAGAAACUAUACAAAU	-0.533	-0.000875	0.0216	0.0248
GUUUGUGUAUCUACUAGUGGUAGAUGGGUACUUAAC	-1.05	-0.677	-0.726	-0.279
GUUUUAAUUAUGCUUAUUAUCUUUUGGUUCUCACUUGAACUGCAAGAUCAUAAUGAAAC	-1.02	-0.212	-0.503	-0.144
GUUUUCUACAAAGAAAAC	-1.75	-0.676	-1.09	-0.524
GUUUUUCUGUUUGGAACUUUAAUUUUAGCCAUGGCAGAUUCCAACGGUACUAUUACCGUUGAAGAGCUUAAAAAGCUCCUUGAAC	-0.41	-0.86	-0.856	-0.23
GUUUUUGUACACAAUUAAACCGUGCUUUAACUGGAAUAGCUGUUGAACAAGACAAAAAC [DMSMaPseq_invitro_SARS-CoV-2_Motif_424]	-0.336	0.247	0.21	-0.127

Sequence	pull-down binding Z-score [1]	pull-down binding Z-score [2]	pull-down binding Z-score (TO-N3 (biotin conjugate))	pull-down binding Z-score [3]
UAAAAUGAAUUAUCAAGUUA [DMSMaPseq_invitro_SARS-CoV-2_Motif_325]	-1.2	-0.703	-1.04	-0.451
UAAACACGCUUGUUAAACAACUUAGCUCCAAUUUUGGUGCAAUUUCAAGUGUUUUA [SHAPE_invitro_SARS-CoV-2_Motif_443]	-0.333	-0.82	-0.925	-0.221
UAAACCACCCAUUAGUUUUCCAUUGUGUGCUAAUGGACAAGUUUUUGGUUUA [SHAPE_invivo_SARS-CoV-2_Motif_310]	-1.35	-0.757	-1	-0.357
UAAAGAACUUUAAGUCAGUUCUUUA	-1.19	-0.827	-1.25	-0.501
UAAAGCCACGUAUAAACCAAAUACCUGGUGUAUACGUUGUCUUUG	-0.691	-0.523	-0.75	-0.279
UAAAGUACUUAAUGAGAAGUGCUCUGCCUAUACAGUUGAACUCGGUACAGAAGUAAAUGAGUUCGCCUGUGUUGUGGCAGAUGCUGUCAUAAAAACUUUG [DMSMaPseq_invitro_SARS-CoV-2_Motif_52]	0.722	-0.419	-0.501	0.122
UAAAUAAGGGACACUUUGAUGGACAACAGGGUGAAGUACCAGUUUCUAUCAUUAAUAACACUGUUUACACAAAAGUUGAUGGUGUUGAUGUAGAAUUGUUUG	-0.111	-0.266	-0.00789	0.0932
UAAAUUUUUGGCUUUGUGUGCUGACUCUAUCAUUAUUGGUGGAGCUAAACUUAAAGCCUUGAAUUUA	-1.2	-0.848	-0.962	0.0426
UAACACCAGGAACAAAUACUUCUAACCAGGUUGCUGUUCUUUAUCAGGGUGUUA [SHAPE_invivo_SARS-CoV-2_Motif_440]	-1.19	-0.383	-0.633	-0.22
UAACAGUUACACCGGAAGCCAAUAUGGAUCAAGAAUCCUUUGGUGGUGCAUCGUGUUG	-0.452	-0.833	-0.9	-0.365
UAAGGAAGGAAGUUCUGUUGAAUUAAAACACUUCUUCUUUG [SHAPE_invitro_SARS-CoV-2_Motif_269]	-0.905	-0.963	-1.1	-0.389
UAAGGAGAGUGUUCAGACAUUCUUUAAGCUUG [DMSMaPseq_invitro_SARS-CoV-2_Motif_43]	-0.426	-0.408	-0.507	-0.244
UAAUAACGCUACUAAUGUUGUUAUUA	-1.73	-0.595	-1.02	-0.411
UAAUCAGACAAGGAACUGAUUA	-0.943	-0.426	-0.836	-0.537
UAAUGGUUUAACUUCUAUUA [DMSMaPseq_invitro_SARS-CoV-2_Motif_100]	-1.37	-0.945	-1.33	-0.395
UAAUUAUAAAUUACCAGAUGAUUUUACAGGCUGCGUUAUAGCUUGGAAUUCUAACAAUCUUGAUUCUAAGGUUGGUGGUAAUUAUAAUUA	-0.713	-0.486	-0.838	0.371
